Target: T1, HLA-Cw*0102
T1 construct: whole, on cells; MHC class I molecule on cells, as the partner that takes up the peptide; also called cell surface MHC class I of L721.174 cells
Assay: MHC class I stabilisation on L721.174 cells with increasing peptide, flow cytometry
Description: Cells were stained for cell surface of MHC class I and analysed by flow cytometry. The mean fluorescence intensity of cell surface MHC Class I was plotted against the peptide concentration.
3×10⁵ cells were used per condition. Following washing in PBS the cells were stained for cell surface of MHC class I and analysed by flow cytometry. The mean fluorescence intensity of cell surface MHC Class I was plotted against the peptide concentration.

LNPSVAATL [peptide LNPSVAATL (SEQ ID NO: 1)]: binds.

Reference: patent publication US20170137466A1 (UNIVERSITY OF SOUTHAMPTON, published 2017)
